From article PMC5849714, “Direct coupling of detergent purified human mGlu5 receptor to the heterotrimeric G proteins Gq and Gs” (Scientific Reports, 2018) come the findings set out here.

The target in assay [1] is mGlu5-Δ856 (construct for large-scale purification, devoid of eGFP) (human) (UniProt P41594). Put plainly: SEC; purified receptor on Superose 6 increase in MNG3/CHS.
Assay [2] shares this target.

Gαqβ1γ2, sequence (P50148 whole entry): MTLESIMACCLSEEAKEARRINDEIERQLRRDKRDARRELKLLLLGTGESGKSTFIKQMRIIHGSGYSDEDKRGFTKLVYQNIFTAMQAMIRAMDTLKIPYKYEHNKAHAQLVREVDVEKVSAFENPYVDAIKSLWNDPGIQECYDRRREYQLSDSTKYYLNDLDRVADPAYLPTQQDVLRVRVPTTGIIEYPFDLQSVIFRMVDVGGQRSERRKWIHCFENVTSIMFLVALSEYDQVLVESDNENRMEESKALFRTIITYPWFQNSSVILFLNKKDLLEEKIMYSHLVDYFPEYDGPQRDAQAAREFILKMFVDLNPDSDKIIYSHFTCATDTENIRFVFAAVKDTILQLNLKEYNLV
Gαqβ1γ2, sequence (P62873 whole entry): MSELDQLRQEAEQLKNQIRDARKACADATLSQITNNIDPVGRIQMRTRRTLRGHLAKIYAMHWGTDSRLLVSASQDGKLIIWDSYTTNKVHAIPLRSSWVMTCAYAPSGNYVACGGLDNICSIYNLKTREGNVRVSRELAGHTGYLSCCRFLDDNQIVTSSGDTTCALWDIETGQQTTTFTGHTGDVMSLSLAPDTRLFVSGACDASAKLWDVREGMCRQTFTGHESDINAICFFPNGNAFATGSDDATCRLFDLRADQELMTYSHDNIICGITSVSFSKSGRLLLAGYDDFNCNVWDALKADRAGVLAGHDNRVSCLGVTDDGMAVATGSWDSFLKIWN
Gαqβ1γ2, sequence (P59768 whole entry): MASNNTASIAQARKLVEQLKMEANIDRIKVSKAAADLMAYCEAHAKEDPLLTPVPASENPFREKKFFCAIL

The term stoichiometry N denotes the number of molecules, sites or subunits per partner or assembly. In assay [1], “mGlu5-Δ856 (construct for large-scale purification, devoid of eGFP) (from UniProt P41594-2 21-856) (receptor)” displayed a stoichiometry N of 2.

“Gαqβ1γ2 (from UniProt P50148 1-359; P62873 1-340; P59768 1-71) (complex)” showed a Bodipy-FL GTPγS fluorescence, purified receptor in detergent, glutamate and VU0424465 together: increase of the maximum response in assay [2] of 30%.
